From patent US20260232828A1, “LIGAND-CYTOTOXICITY DRUG CONJUGATES AND PHARMACEUTICAL USES THEREOF” (HANSOH BIO LLC, priority 2023, published 2026) come the findings set out here.

Changes are numbered by the printed parent chain.

In assay [1] the target is human CDH17 as originally expressed in cells (cell surface CDH17 on AsPC1, GP2d and other cancer cell lines) (human) (UniProt Q12864). Description: flow cytometry, labelled antibody on AsPC1 cells. A general note: A flow cytometer gives signals particle by particle.
Assay [2] has the same target. Description: flow cytometry competition on AsPC1 cells: unlabelled HBMAB81 0.03-1800 nM against 0.97 nM HBMAB81-AF647, MFI.
Assay [3] has as its target human CDH17 His Tag (Sino biological, catalog number 11360-H08H) (human) (UniProt Q12864). Description: Octet BLI, antibody on AHC biosensor, antigen in solution.
Assay [4] has as its target T1, human CDH17 as originally expressed in cells (cell surface CDH17 on AsPC1, GP2d and other cancer cell lines) (human, UniProt Q12864 23-832).
T1 construct: whole, on cells; Endogenous CDH17 on human cancer cell lines; AsPC1 and GP2d are named CDH17 positive; also called CDH17 positive AsPC1 cells; GP2d cells
Nature of the assay: flow cytometry titration on CDH17 positive AsPC1 cells. The procedure:
(§1) To determine the binding of recombinant antibody to cell surface CDH17 receptors, cells were first harvested and resuspended in cell staining buffer (BioLegend, Cat #420201) at 1.3-1.5×10⁶ cells/mL. Then, the cells were treated with human Fc receptor blocking reagent (BioLegend, Cat #422302) on the ice for 10 min. The resulting cell suspension was aliquoted into 50 μL aliquots. […] The cells were incubated on the ice for 1 hour and then washed with cell staining buffer twice. 50 μL of secondary antibody (PE conjugated goat anti-human Fc, eBioscience™, 1:250 dilution) was added to each sample to resuspend the cells. The cells were incubated on the ice for another 20 min. Cells were subsequently washed twice with cell staining buffer and resuspended in 4% PFA to fix the cells. The samples were analyzed using iQue3 to measure the median fluorescence intensity using corresponding channels.

The target in assay [5] is T2, human CDH16-His tag (Sino biological, catalog number 10915-H08H) (human, UniProt O75309 19-786).
T2 construct: Bought recombinant protein; also called hCDH16; not shown: His tag
T2 sequence (looked up): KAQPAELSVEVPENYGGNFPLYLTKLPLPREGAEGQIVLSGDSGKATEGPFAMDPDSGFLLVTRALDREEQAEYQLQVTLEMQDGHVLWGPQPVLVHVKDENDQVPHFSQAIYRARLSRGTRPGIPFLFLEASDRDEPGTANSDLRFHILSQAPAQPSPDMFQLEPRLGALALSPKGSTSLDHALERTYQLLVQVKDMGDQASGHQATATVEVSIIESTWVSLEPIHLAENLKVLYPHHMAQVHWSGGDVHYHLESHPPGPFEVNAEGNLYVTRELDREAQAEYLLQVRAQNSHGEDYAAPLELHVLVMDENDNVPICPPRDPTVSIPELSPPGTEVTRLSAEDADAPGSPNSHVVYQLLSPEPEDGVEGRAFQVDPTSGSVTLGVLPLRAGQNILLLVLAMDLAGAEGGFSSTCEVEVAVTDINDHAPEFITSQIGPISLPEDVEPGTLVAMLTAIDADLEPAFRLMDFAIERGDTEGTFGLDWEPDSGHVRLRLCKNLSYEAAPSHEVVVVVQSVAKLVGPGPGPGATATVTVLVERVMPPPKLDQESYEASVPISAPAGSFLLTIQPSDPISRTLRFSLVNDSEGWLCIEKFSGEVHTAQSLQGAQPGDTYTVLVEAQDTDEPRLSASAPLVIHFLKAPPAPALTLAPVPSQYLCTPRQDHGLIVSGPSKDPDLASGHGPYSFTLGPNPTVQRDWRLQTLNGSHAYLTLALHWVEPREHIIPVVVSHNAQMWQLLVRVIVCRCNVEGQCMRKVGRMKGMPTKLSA
Description: Octet BLI, antibody on AHC biosensor, antigen 200 nM to 3.1 nM. The procedure:
(§2) The affinity between CDH17 antibodies and CDH17 antigens and homologues was determined by Octet (Octet Red 384) instrument. Anti-hIgG Fc Capture (AHC) Biosensors were selected, and the sensors were balanced with buffer solution for 10 min. Subsequently, sensors were dipped into the wells containing 1 μg/ml of CDH17 lead antibodies to load onto the probes. The excess unbound antibodies were washed off. The antigen binding was performed in the wells containing serially diluted human CDH17-His tag (Sino biological, catalog number 11360-H08H), cynomolgus CDH17-His tag (Acro Biosystems, catalog number CA7-C52H4), homologs human CDH6-His tag (Acro Biosystems, catalog number CA6-H5229) and human CDH16-His tag (Sino biological, catalog number 10915-H08H), with concentration ranging from 200 nM to 3.1 nM, for 5 min. Then probes were dipped into wells containing renewed buffer to initiate the dissociation for another 15 min.
In general terms: BLI is a label-free optical method that tracks binding on a fibre tip over time.

For assay [6], the target named is T3, human CDH6-His tag (Acro Biosystems, catalog number CA6-H5229) (human, UniProt P55285 54-615).
T3 construct: Bought recombinant protein; also called hCDH6; not shown: His tag
T3 sequence (looked up): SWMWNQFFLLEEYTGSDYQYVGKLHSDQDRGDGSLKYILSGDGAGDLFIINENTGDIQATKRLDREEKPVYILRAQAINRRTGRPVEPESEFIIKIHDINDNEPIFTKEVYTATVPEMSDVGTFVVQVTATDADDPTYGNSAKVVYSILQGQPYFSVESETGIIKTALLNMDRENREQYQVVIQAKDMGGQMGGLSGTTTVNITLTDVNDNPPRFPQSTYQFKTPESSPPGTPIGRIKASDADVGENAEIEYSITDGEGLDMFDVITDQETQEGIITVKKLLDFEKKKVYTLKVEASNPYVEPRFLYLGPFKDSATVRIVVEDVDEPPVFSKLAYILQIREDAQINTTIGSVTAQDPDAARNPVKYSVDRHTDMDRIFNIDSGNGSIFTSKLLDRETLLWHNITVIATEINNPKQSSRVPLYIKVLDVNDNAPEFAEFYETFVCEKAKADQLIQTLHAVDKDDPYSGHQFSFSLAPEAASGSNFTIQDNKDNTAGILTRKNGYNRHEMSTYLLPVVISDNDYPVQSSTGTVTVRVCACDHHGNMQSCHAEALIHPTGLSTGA
The assay is described as above. The procedure:
as §2

Assay [7] has as its target T1, human CDH17 as originally expressed in …. Nature of the assay: cell-based or functional assay.
Assay [8] has as its target cynomolgus CDH17-His tag (Acro Biosystems, catalog number CA7-C52H4) (cynomolgus). Nature of the assay: Octet BLI, antibody on AHC biosensor, antigen in solution.
Assay [9] concerns the target T4, human CDH17 His Tag (Sino biological, catalog number 11360-H08H) (human, UniProt Q12864 23-787).
T4 construct: Bought recombinant protein; also called hCDH17; human CDH17 protein; not shown: His tag
The description is as above. The procedure: as §2

In assay [10] the target is T1, human CDH17 as originally expressed in …. Description: flow cytometry titration of recombinant human IgG1 on CDH17-positive AsPC1 cells, 0.001-200 nM, PE anti-human Fc, MFI. As for the experimental part:
as §1

Turning to “HBMAB81-AF647 (HBMAB81 mAb labeled with Alexa Flour 647) (antibody)”, the EC80 in assay [1] turned out to be 0.97 nM.
The molecule “HBMAB-81, reformatted mAb with the CDH17 binding arm from bispecific antibody BI 905771 and human IgG1 backbone” gave an IC50 (read off the curve) in assay [2] of 0.3 nM. In addition, in assay [3], the Kd amounted to 4 nM, the koff stood at 0.00136 s⁻¹ and the kon came to 340000 M⁻¹ s⁻¹.

B1: 14B12 anti-CDH17 recombinant antibody (human IgG1) (antibody, V domains shown)
VH: QVQLQESGPGLVKPSETLSLTCTVSGGSINTYYRSWIRQPPGKGLEWIGYIYYSGNTNYNPSLKSRVTISADTSKNQFSLNLISVTAADTAMYYCARAQYGEEAFDIWGQGTLVTVSS
VL: DIQMTQSPSSLSASVGDRVTITCRASQSITTYLNWYQQKPGKAPQLLIFAASRLQTGVPSRFSGSGSGTDFTLTISSLLPGDFATYYCQQSYNTPPTFGGGTKVEIKR
B1: the Kd in [4] was 0.07 nM; in assay [8], 2.5 nM; in [9], 2.2 nM. The binding result in [5] and in assay [6] was “no binding (tested: 200 nM)” throughout. For the same molecule, in [7], the “IC50 of indirect killing assay to evaluate the internalization in AsPC1 cells” value (from here on “IC50 of indirect killing assay”) was determined as 0.09 nM. For the same molecule, the koff in assay [8] is 0.00016 s⁻¹; in assay [9] it was 0.000507 s⁻¹. Further, the results for the kon in assay [8] and in [9] were 620000 M⁻¹ s⁻¹ and 230000 M⁻¹ s⁻¹, respectively.

B2: 4F9 anti-CDH17 recombinant antibody (human IgG1) (antibody, V domains shown)
VH: QVQLQESGPGLVKPSGTLSLTCAVSGGSISSSNWWSWVRQPPGKGLEWIGEIYHSGSTSYNPSLKSRVTISVDKSKNQFSLKLSSVTAADTAVYYCARNDWGFPLDCWGQGTLVTVSS
VL: DIQMTQSPSSLSASVGDRVTITCRASQSISSYLNWYQQKPGKAPKLLIYAASSLQSGVPSRFSGSGSGTHFTLTISSLQPEDFATYYCQQSHNIPITFGQGTRLEIKR
B2: in assay [10], the “EC50 (read off the curve)” value is approximately 2 nM. This molecule showed a Kd in assay [4] of 1.69 nM. Further, the “IC50 of indirect killing assay” value in assay [7] is 0.29 nM.

B3: 10E11 anti-CDH17 recombinant antibody (human IgG1) (antibody, V domains shown)
VH: EVQLVQSGTEVKKPGESLKISCKDSGYRFSSYWIGWVRQMPGKGLEWMGIIYPGDSDTRYSPSFQGQVTISADKSISTAYLQWRSLKASDTAMYYCARRGWVNYFDYWGQGTLVTVSS
VL: DIQMTQSPSSVSASVGDRVTITCRASQGISNWLGWYQQKPGKAPKLLIYAASSLQSGVPSRFSGSGSGTDFTLTISSLQPEDFATYYCQQANSFPLTFGGGTKVEIKR
Turning to B3, the Kd in [4] amounted to 0.1 nM; in assay [8] it was 15 nM; in assay [9], 14.2 nM. Besides, the binding result in assay [5] and in assay [6] was “no binding (tested: 200 nM)” in each case. In addition, the “IC50 of indirect killing assay” value in assay [7] turned out to be 0.08 nM. Further, the koff in assay [8] was 0.0012 s⁻¹; in assay [9], 0.00138 s⁻¹. For the same molecule, the kon was 80000 M⁻¹ s⁻¹ in assay [8] and 97500 M⁻¹ s⁻¹ in [9].

B4: 15A4 anti-CDH17 recombinant antibody (human IgG1) (antibody, V domains shown)
VH: QVQLVESGGGVVQPGRSLRLSCAASGFNFSSYGMHWVRQAPGKGLEWVAFVWYDGSNQNYADSVKGRFTISRDNSNNTLYLQMNSLRAEDTAVYYCARDRYSSGWDVFDYWGQGTLVTVSS
VL: B3 VL with N31S, G34A, Y49F, D70G, N92K, L96P, G100Q
As to B4, the “EC50 (read off the curve)” value in assay [10] was approximately 3 nM. Moreover, binding in assay [4] was put at a Kd of 2.32 nM. In addition, the “IC50 of indirect killing assay” value in assay [7] is 1.99 nM.

For orientation: EC80 means the concentration needed for an effect of 80%. A lower EC80 goes with an effect from little substance. What is called Kd is a measure of binding affinity in units of concentration. Read a low Kd as a tighter complex. A word on the koff: it is the first-order rate constant of dissociation. High values mean fast dissociation, low ones slow dissociation. In general, kon refers to the rate constant with which the complex forms. The low end stands for slower complex formation, the high end for faster complex formation. Broadly, the EC50 (read off the curve) is the concentration needed to bring the measured effect to its halfway point.
